T1: Flag-tagged hPER1 (human Period 1, full-length open reading frame, amino acids 1 to 1289), O15534
T1 chain: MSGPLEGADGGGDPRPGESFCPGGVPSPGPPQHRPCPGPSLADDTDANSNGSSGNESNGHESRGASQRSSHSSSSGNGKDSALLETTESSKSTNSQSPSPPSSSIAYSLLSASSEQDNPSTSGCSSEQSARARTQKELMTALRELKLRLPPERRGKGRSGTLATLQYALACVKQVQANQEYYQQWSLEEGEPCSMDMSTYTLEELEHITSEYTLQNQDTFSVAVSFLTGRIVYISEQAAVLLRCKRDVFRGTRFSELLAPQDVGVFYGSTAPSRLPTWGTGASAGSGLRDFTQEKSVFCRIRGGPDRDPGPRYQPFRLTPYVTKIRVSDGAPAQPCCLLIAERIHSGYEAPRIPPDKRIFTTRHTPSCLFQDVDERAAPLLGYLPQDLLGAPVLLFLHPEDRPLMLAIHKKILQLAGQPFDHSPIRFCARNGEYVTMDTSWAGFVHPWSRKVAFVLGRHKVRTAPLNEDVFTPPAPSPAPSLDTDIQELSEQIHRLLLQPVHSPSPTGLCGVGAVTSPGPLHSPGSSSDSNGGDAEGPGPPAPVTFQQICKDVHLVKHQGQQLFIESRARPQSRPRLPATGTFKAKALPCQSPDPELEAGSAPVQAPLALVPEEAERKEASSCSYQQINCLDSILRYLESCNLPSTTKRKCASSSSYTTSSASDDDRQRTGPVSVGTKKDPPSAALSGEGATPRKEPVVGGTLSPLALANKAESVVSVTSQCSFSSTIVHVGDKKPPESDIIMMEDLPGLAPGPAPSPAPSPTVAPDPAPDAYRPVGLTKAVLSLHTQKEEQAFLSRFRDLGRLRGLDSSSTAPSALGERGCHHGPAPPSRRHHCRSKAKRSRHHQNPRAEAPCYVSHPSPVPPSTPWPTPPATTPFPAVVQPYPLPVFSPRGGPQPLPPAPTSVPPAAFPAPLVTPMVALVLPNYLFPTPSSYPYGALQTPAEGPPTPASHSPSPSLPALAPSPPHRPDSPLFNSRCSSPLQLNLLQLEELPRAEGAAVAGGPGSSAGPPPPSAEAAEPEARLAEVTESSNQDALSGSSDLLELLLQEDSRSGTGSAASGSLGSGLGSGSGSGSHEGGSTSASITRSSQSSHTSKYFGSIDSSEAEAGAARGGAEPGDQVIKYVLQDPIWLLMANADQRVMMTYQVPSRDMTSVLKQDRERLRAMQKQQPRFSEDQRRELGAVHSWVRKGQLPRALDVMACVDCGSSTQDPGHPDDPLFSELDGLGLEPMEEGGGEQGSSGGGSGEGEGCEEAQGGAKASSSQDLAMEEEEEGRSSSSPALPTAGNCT

T2: hPER2-C-terminal YGFP protein (human Period 2, full-length ORF), O15055
T2 sequence (O15055 whole entry, looked up): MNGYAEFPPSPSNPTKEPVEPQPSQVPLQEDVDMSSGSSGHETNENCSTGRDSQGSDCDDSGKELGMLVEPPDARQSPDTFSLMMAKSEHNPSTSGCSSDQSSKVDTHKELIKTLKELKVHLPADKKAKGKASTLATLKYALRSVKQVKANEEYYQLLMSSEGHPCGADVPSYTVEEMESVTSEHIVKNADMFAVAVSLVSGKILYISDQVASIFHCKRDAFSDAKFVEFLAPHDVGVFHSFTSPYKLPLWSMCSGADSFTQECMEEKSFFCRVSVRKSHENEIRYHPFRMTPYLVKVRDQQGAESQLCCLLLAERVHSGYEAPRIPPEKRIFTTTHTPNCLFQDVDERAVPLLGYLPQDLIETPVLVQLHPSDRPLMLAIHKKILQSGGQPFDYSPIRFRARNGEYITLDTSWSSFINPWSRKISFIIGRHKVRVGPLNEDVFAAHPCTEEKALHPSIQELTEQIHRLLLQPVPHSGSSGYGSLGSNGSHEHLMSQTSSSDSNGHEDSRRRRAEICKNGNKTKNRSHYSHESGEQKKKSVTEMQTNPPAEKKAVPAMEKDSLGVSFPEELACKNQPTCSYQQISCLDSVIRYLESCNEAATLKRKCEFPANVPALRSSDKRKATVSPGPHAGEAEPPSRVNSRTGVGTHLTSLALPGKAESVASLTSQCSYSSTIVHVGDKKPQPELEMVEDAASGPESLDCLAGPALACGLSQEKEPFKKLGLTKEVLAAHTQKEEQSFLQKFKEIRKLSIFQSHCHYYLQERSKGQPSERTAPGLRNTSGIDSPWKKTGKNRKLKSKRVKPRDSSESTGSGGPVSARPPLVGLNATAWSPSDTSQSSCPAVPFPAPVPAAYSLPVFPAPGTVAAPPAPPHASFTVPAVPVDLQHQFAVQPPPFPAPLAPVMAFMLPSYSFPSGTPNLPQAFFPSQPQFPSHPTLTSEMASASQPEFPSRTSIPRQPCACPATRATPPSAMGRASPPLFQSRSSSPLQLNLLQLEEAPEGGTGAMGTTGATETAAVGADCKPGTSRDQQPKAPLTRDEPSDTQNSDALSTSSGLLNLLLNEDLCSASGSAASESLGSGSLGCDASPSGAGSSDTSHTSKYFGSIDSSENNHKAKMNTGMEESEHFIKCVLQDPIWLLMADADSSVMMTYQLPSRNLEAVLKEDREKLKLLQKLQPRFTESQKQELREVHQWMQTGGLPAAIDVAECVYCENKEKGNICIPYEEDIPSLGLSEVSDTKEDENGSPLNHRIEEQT


Key:
[1] = biological target: T1, Flag-tagged hPER1 (human Period 1, …)
[2] = biological target: T2, hPER2-C-terminal YGFP protein (human …)

GST-IkBα, sequence (P25963 whole entry): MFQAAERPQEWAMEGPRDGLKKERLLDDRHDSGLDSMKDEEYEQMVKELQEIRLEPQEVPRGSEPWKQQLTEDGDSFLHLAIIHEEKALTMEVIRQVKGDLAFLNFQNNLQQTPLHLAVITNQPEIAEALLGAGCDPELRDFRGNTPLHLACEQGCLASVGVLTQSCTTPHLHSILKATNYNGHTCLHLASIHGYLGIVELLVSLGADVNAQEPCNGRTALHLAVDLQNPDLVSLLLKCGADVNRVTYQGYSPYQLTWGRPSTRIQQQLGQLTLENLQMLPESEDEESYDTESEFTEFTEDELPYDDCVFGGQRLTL

Protein	P32 incorporation [1]	P32 incorporation into hPER2 in cpm [2]	Shift in hPER2 migration [2]	in vitro kinase assay, 32P autoradiography [1]	in vitro kinase assay, 32P autoradiography (GST-IkBα)	in vitro kinase assay, 32P autoradiography (casein)
HA-tagged hCKIε (human casein kinase I ε, wild type, expressed from pCEP4-CKIε in 293T cells) (protein) YPDYDVPDYAMELRVGNKYRLGRKIGSGSFGDIYLGANIASGEEVAIKLECVKTKHPQLHIESKFYKMMQGGVGIPSIKWCGAEGDYNVMVMELLGPSLEDLFNFCSRKFSLKTVLLLADQMISRIEYIHSKNFIHRDVKPDNFLMGLGKKGNLVYIIDFGLAKKYRDARTHQHIPYRENKNLTGTARYASINTHLGIEQSRRDDLESLGYVLMYFNLGSLPWQGLKAATKRQKYERISEKKMSTPIEVLCKGYPSEFSTYLNFCRSLRFDDKPDYSYLRQLFRNLFHRQGFSYDYVFDWNMLKFGAARNPEDVDRERREHEREERMGQLRGSATRALPPGPPTGATANRLRSAAEPVASTPASRIQPAGNTSPRAISRVDRERKVSMRLHRGAPANVSSSDLTGRQEVSRIPASQTSVPFDHLGK	co-transfection of hPER2 or hPER1 with CKIe resulted in the incorporation of p32 into both PER proteins	5000 cpm	+			
recombinant his-tagged wild-type hCKIε, expressed in E. coli and purified (protein) MELRVGNKYRLGRKIGSGSFGDIYLGANIASGEEVAIKLECVKTKHPQLHIESKFYKMMQGGVGIPSIKWCGAEGDYNVMVMELLGPSLEDLFNFCSRKFSLKTVLLLADQMISRIEYIHSKNFIHRDVKPDNFLMGLGKKGNLVYIIDFGLAKKYRDARTHQHIPYRENKNLTGTARYASINTHLGIEQSRRDDLESLGYVLMYFNLGSLPWQGLKAATKRQKYERISEKKMSTPIEVLCKGYPSEFSTYLNFCRSLRFDDKPDYSYLRQLFRNLFHRQGFSYDYVFDWNMLKFGAARNPEDVDRERREHEREERMGQLRGSATRALPPGPPTGATANRLRSAAEPVASTPASRIQPAGNTSPRAISRVDRERKVSMRLHRGAPANVSSSDLTGRQEVSRIPASQTSVPFDHLGK				The presence of hCKIε results in phosphorylation of hPER1	Recombinant hCKIε phosphorylates both casein and IkBα substrates	Recombinant hCKIε phosphorylates both casein and IkBα substrates
recombinant histidine-tagged hCKIε-K38R, expressed in bacteria and purified (protein) MELRVGNKYRLGRKIGSGSFGDIYLGANIASGEEVAIRLECVKTKHPQLHIESKFYKMMQGGVGIPSIKWCGAEGDYNVMVMELLGPSLEDLFNFCSRKFSLKTVLLLADQMISRIEYIHSKNFIHRDVKPDNFLMGLGKKGNLVYIIDFGLAKKYRDARTHQHIPYRENKNLTGTARYASINTHLGIEQSRRDDLESLGYVLMYFNLGSLPWQGLKAATKRQKYERISEKKMSTPIEVLCKGYPSEFSTYLNFCRSLRFDDKPDYSYLRQLFRNLFHRQGFSYDYVFDWNMLKFGAARNPEDVDRERREHEREERMGQLRGSATRALPPGPPTGATANRLRSAAEPVASTPASRIQPAGNTSPRAISRVDRERKVSMRLHRGAPANVSSSDLTGRQEVSRIPASQTSVPFDHLGK				hCKIε-K38R has no kinase activity towards hPER1	does not phosphorylate either casein or GST-IkBα substrates	does not phosphorylate either casein or GST-IkBα substrates
hCKIε-K38R, kinase-negative mutant of hCKIε, expressed in 293T cells (protein) MELRVGNKYRLGRKIGSGSFGDIYLGANIASGEEVAIRLECVKTKHPQLHIESKFYKMMQGGVGIPSIKWCGAEGDYNVMVMELLGPSLEDLFNFCSRKFSLKTVLLLADQMISRIEYIHSKNFIHRDVKPDNFLMGLGKKGNLVYIIDFGLAKKYRDARTHQHIPYRENKNLTGTARYASINTHLGIEQSRRDDLESLGYVLMYFNLGSLPWQGLKAATKRQKYERISEKKMSTPIEVLCKGYPSEFSTYLNFCRSLRFDDKPDYSYLRQLFRNLFHRQGFSYDYVFDWNMLKFGAARNPEDVDRERREHEREERMGQLRGSATRALPPGPPTGATANRLRSAAEPVASTPASRIQPAGNTSPRAISRVDRERKVSMRLHRGAPANVSSSDLTGRQEVSRIPASQTSVPFDHLGK		3000 cpm	-			
